Results: publication doi:10.64898/2025.12.26.696629

Target: T1, SufR6-229-His6 (holo, [4Fe-4S]) (Mycobacterium tuberculosis H37Rv, UniProt O53151 30-253)
T1 sequence: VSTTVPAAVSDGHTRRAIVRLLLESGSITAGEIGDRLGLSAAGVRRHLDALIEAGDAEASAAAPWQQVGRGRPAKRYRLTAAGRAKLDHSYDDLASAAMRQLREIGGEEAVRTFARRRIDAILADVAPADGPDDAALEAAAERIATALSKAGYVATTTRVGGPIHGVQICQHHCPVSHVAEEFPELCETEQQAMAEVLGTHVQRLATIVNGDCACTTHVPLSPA
Assay: MST

B1: PsufR 50-bp (dsDNA)
DNA 1: CCGATCAACGGAATTTTGTCACACTGATGTTGTGAAAATCCCGGCGGTCT
DNA 2: AGACCGCCGGGATTTTCACAACATCAGTGTGACAAAATTCCGTTGATCGG
Work on B1 yielded a Kd of 235 ± 45.8 nM.
